Where two headings read alike, the source gives them in different places.

By Kd is commonly meant a measure of binding affinity in units of concentration. A higher Kd goes with weaker binding.

Assay in all cases: fluorescence anisotropy
(Fluorescence polarisation rises when a labelled molecule tumbles more slowly, as on binding a larger partner.)

For series [1], the target named is T1, SAMHD1 WT (UniProt Q9Y3Z3 1-626).
The target of series [2] is T1, SAMHD1 WT. The source holds these as a separate data set.
The target in series [3] is T2, SAMHD1 T592A (UniProt Q9Y3Z3 1-626, T592A).
T2 sequence (Q9Y3Z3 whole entry T592A): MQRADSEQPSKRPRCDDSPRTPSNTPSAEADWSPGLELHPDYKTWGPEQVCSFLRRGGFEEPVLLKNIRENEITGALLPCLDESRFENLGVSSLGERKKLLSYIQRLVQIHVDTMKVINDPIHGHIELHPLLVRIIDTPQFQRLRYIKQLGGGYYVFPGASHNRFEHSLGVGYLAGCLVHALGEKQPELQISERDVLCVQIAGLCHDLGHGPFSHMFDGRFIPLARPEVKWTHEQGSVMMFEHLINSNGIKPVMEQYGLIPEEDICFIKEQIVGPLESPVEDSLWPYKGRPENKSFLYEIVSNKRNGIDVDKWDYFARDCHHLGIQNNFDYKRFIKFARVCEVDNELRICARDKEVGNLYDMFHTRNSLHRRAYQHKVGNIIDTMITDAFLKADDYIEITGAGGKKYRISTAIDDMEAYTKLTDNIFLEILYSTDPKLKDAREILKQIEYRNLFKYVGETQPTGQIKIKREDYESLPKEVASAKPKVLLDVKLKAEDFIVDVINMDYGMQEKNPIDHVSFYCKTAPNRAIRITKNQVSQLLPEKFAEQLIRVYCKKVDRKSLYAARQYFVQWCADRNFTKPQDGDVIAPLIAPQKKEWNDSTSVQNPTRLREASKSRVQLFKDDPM
For series [4], the target named is T1, SAMHD1 WT. The source holds these as a separate data set.
Series [5] has as its target T2, SAMHD1 T592A. The source holds these as a separate data set.

T1 sequence (Q9Y3Z3 whole entry): as the sequence (Q9Y3Z3 whole entry T592A) above, with A592T counted along it

B1: HIV-1 LTR 90-mer (ssDNA)
DNA: AGCAGTGGCGCCCGAACAGGGACTTGAAAGCGAAAGTAAAGCCAGAGGAGATCTCTCGACGCAGGACTCGGCTTGCTGAAGCGCGCACGG
As to B1, the Kd in the series with SAMHD1 WT [1] was 93 ± 8 nM; with SAMHD1 WT [2], 242 ± 51 nM. The binding result with SAMHD1 T592A [3] is recorded as “no binding”.

B2: Scrambled DNA 90-mer (ssDNA)
DNA: ACTAGCTCAAGCGGGGGACACCCAGGTGTCTCCAACAGTCCGTAGATCGGACGGAGAAGAGGGGACCCCGCTAATGAGCGTGAGCAGAGA
As to B2, the binding result with SAMHD1 WT [4] and with SAMHD1 T592A [5] was “no binding” in each case.

Source of the values: paper doi:10.1101/270843.
